Experimental data taken from patent publication US20160053248A1, “SYSTEMS AND METHODS FOR EVOLVING ENZYMES WITH DESIRED ACTIVITIES” (Potomac Affinity Proteins, LLC, priority 2009, published 2016).

Experiments:
subtilisin = conditions: competitive inhibitor of active subtilisin; cited from earlier work
[1] = tested on: Dabcyl-EEDKLFRAL-SATE(EDANS)G; experiment: Transient state kinetics with self-quenched FRET peptide: deacylation; format: biochemical; conditions: SBT189 in 50 mM azide
Experimental: The deacylation reaction and product release: A self-quenched FRET peptide that becomes highly fluorescent when cleaved (Dabcyl-EEDKLFRAL-SATE(EDANS)G (SEQ ID NO:16)) was synthesized. This peptide has been used to determine transient state kinetic parameters. Deacylation of SBT189 in 50 mM azide is faster (3.3 s^−1) than the wild type counterpart (1.8 s^−1). The rate of product (Dabcyl-EEDKLFRAL; (SEQ ID NO:17)) release is 6 s^−1 and Kp is 1.2 μM. Product binding is not influenced by azide concentration. Strong product binding of subtilisin-phage to GA-PCOGNATE- is used for the collection of active mutants in the release step in phage selection (see FIG. 5). Binding is constitutive at this step, however, and is not used to increase selectivity.

GB-LFRAL-SA-GFP = experiment: Digestion of GB-LFRAL-SA-GFP fusion protein in E. coli extract (protein gel, MALDI-MS); format: biochemical; conditions: 20 μM fusion protein, 50 nM SBT189, 10 mM azide, 0.1M KPi, pH 7.2, 22° C.
Experimental: In order to evaluate sequence specificity of SBT189 for the cognate sequence identified by phage display, a gene was constructed to direct the synthesis of a fusion of the 56 amino acid B domain (GB) of streptococcal Protein G to a linker comprising the cognate sequence LFRAL-SA (SEQ ID NO:5) followed by GFP. Accordingly, the protein is denoted “GB-LFRAL-SA-GFP”.
Timepoints were collected as indicated. The fusion protein (20 μM) was mixed with 50 nM of SBT189 in 10 mM azide, 0.1M KPi, pH 7.2, at 22° C.

GA-PLFRAL-S-GB = experiment: Acylation kinetics (GB release) of pre-formed enzyme-substrate complex monitored by fluorescence; format: biochemical
Description: In panels A-C, RSUB1(AF350) represents subtilisin SBT189 conjugated to AF350).
The acylation reaction: Step 2 describes conversion of the ternary complex into an acyl-enzyme with the concomitant release to the C-terminal portion of the substrate. With substrates used in phage display, the GB domain is released concomitantly with the acylation step. If a fluorescent reporter group is attached to subtilisin, a decrease in energy transfer enables time-dependent quantitation of acylation.

GA-PFRAL-S-GB = experiment: Cleavage kinetics of GA-PFRAL-S-GB by position 166 mutant versus parent enzyme; format: biochemical; conditions: no azide
Experimental: Mutants were selected that cleave the substrate GA-PFRAL-S-GB in response to azide. Phage were bound to the GA-PFRAL-S-GB substrate and collected on IgG-Sepharose. The ability to hydrolyze the fusion protein is selected by washing the beads in 1 mM azide for 5 minutes in the release step. Phage are therefore released or retained from the resin based on the kinetics with which they cleave GA-PFRAL from GB under the triggering condition. Released phage were collected on HSA-Sepharose, acid eluted, neutralized, used to infect fresh E. coli cells, plated out, and colonies counted. Three cycles of selection were carried out. After three rounds of selection, the consensus amino acid at position 166 was threonine. The kinetic properties of the T166 mutant were compared to parent enzyme (SBT189), which has a serine at 166. The T166 mutant hydrolyzed GA-PFRAL-S-GB 1.5-times faster than SBT 189 in 1 mM azide. […] Thus the ratio of triggered rate to intrinsic rate was increased 5-fold by optimizing a single amino acid position in the S1 subsite. This ratio is a quantitative measure of how tightly the enzyme is regulated by the trigger.

Molecule | Ki (subtilisin) | deacylation rate [1] | processing of the fusion protein (GB-LFRAL-SA-GFP) | rate of GB release (GA-PLFRAL-S-GB; 0.1M KPO4, pH 7.2, no azide, 22° C.) | rate of GB release (GA-PLFRAL-S-GB; saturating azide) | azide dependent rate enhancement (GA-PLFRAL-S-GB; saturating azide versus no azide) | cleavage rate in the absence of azide (GA-PFRAL-S-GB)
77 amino acid prodomain: 77 amino acid subtilisin prodomain (SEQ ID NO: 25) (protein, listed as Bacillus amyloliquefaciens) AGKSNGEKKYIVGFKQTMSTMSAAKKKDVISEKGGKVQKQFKYVDAASATLNEKAVKELKKDPSVAYVEEDHVAHAY | 540 nM | – | – | – | – | – | –
SBT189: D32A mutant of subtilisin, azide-triggered protease (SEQ ID NO: 27) (protein, Subtilisin related sequence) AKCVSYGVAQIKAPALHSQGYTGSNVKVAVLASGIDSSHPDLNVAGGASFVPSETNPFQDNNSHGTHVAGTVLAVAPSASLYAVKVLGADGSGQASWIINGIEWAIANNMDVINMSLGSPSGSAALKAAVDKAVASGVVVVAAAGNSGTSGSSSTVSYPAKYPSVIAVGAVDSSNQRAPFSSVGPELDVMAPGVSICSTLPGGKYGALSGTSMASPHVAGAAALILSKHPNWTNTQVRSSLENTATKLGDSFYYGKGLINVEAAAQ | – | 3.3 s⁻¹ | correctly and specifically processed | 0.0019 s⁻¹ | 6.4 s⁻¹ | about 3300 fold | 0.12 min⁻¹
